Data on one molecule can be found in PMC8773746.

The target in the assay is Human erythropoietin (Epoetin β) (human) (UniProt P01588). As to the kind of experiment: SPR; EPO immobilised by amine coupling on a ProteOn GLH chip (up to 3 000 RU); S100 or CaM as analyte (0.25–4 μM); 25 °C; 10 mM HEPES, 150 mM NaCl, 0.05% TWEEN 20, pH 7.4, 1 mM CaCl2; heterogeneous ligand model, values averaged over analyte concentrations (n = 5). On the technique in general: In SPR one partner is held on a chip, and binding of the other changes the refractive index at the surface.

B1: Human S100P protein (wild-type) (natural protein)
chain: MTELETAMGMIIDVFSRYSGSEGSTQTLTKGELKVLMEKELPGFLQSGKDKDAVDKLLKDLDANGDAQVDFSEFIVFVAAITSACHKYFEKAGL
In turn, B1 showed a Kd1 (heterogeneous ligand model, ligand population L1) of 540 nM; a Kd2 (heterogeneous ligand model, ligand population L2) of 1.8 µM; a ka1 (heterogeneous ligand model, ligand population L1) of 2000 M⁻¹ s⁻¹; a ka2 (heterogeneous ligand model, ligand population L2) of 16000 M⁻¹ s⁻¹. The molecule further yielded a kd1 (heterogeneous ligand model, ligand population L1) of 0.0011 s⁻¹ and a kd2 (heterogeneous ligand model, ligand population L2) of 0.028 s⁻¹.
